Experiments:
[1] = target: T1, PD1 aglycosylated at Asn58 (human PD1-ECD) (human, UniProt Q15116 25-170, not glycosylated at Asn58 (position on SEQ ID NO: 70)); assay: SPR (Biacore T200, 25 °C), antibody captured by anti-human IgG, PD1-ECD as analyte, 1:1 Langmuir fit; PD1 aglycosylated at Asn58
T1 construct: also called aglycosylated PD-1; non-glycosylated recombinant human PD1
Description: (§1) A surface plasmon resonance (SPR) based assay has been used to determine the kinetic parameters of the binding between […]. Therefore, an anti-human IgG was immobilized by amine coupling to the surface of a (Biacore) CM5 sensor chip. The samples were then captured and hu PD1-ECD was bound to them. The sensor chip surface was regenerated after each analysis cycle. The equilibrium constant and kinetic rate constants were finally gained by fitting the data to a 1:1 langmuir interaction model.
(§2) The samples were injected for 20 seconds with a concentration of 10 nM and bound to the second flow cell.
(§3) Finally the double referenced data was fitted to a 1:1 langmuir interaction model with the Biacore T200 Evaluation Software.

[2] = target: T2, PD1 glycosylated at Asn58 (human PD1-ECD) (human, UniProt Q15116 25-170, N-glycosylated at Asn58 (position on SEQ ID NO: 70)); assay: SPR (Biacore T200, 25 °C), antibody captured by anti-human IgG, PD1-ECD as analyte, 1:1 Langmuir fit; PD1 glycosylated at Asn58
T2 construct: also called glycosylated PD-1; glycosylated recombinant PD1
T2 sequence (Q15116 25-170 limits assumed): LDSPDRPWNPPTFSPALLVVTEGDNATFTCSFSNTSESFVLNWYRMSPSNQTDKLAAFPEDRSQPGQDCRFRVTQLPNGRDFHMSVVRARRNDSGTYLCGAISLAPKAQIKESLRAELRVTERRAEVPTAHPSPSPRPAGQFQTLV
Description: as §1, §2, §3

[3] = target: T2, PD1 glycosylated at Asn58 (human …); assay: SPR (Biacore T200, 25 °C), antibody captured by anti-human IgG, PD1-ECD as analyte, 1:1 Langmuir fit
Description: as §1, §2, §3

[4] = target: T1, PD1 aglycosylated at Asn58 (human …); assay: as above
Description: as §1, §2, §3

T1 sequence (Q15116 25-170 limits assumed): as above

Kd [1]: 80.2 nM
Kd [2]: 0.0961 nM
koff [3]: 7.46e-05 s⁻¹
kon [3]: 777000 M⁻¹ s⁻¹
koff [4]: 0.027 s⁻¹
kon [4]: 336000 M⁻¹ s⁻¹
B1: PD1-0103-0312 (antibody, V domains shown)
VH: EVQLLESGGGLVQPGGSLRLSCAASGFSFSSYTMSWVRQAPGKGLEWVATISGGGRDIYYPDSVKGRFTISRDNSKNTLYLQMNSLRAEDTAVYYCVLLTGRVYFALDSWGQGTLVTVSS
VL: DIVMTQSPDSLAVSLGERATINCKASESVDTSDNSFIHWYQQKPGQSPKLLIYRSSTLESGVPDRFSGSGSGTDFTLTISSLQAEDVAVYYCQQNYDVPWTFGQGTKVEIK

— patent US20170247454A1 (Hoffmann-La Roche, published 2017)
